According to paper PMC3246455, “Degradation of Pheromone and Plant Volatile Components by a Same Odorant-Degrading Enzyme in the Cotton Leafworm, Spodoptera littoralis” (PLoS ONE, 2011):

Tests used:
Assay type in all cases: biochemical, Spodoptera littoralis
[1] = substrate: CC/C=C\CCOC(C)=O; experiment: GC of the released alcohol, as in an earlier paper; details: incubation and analyses as in ref 12; one-site fit
[2] = substrate: CC/C=C/C=C\CCCCCCCCOC(C)=O; experiment: GC of the released alcohol, nonlinear fit; details: 5 min incubation, one-site fit, buffer and temperature not restated for kinetics (1 h assay: 20 mM Tris pH 7.4, 28°C)
[3] = substrate: C/C=C/C/C=C\CCCCCCCCOC(C)=O; experiment: GC of the released alcohol, nonlinear fit; details: 5 min incubation, one-site fit, buffer and temperature not restated for kinetics (1 h assay: 20 mM Tris pH 7.4, 28°C)

B1: SlCXE7 (Spodoptera littoralis) (protein)
chain: DDEWREVKTAQGPVRGRKHPTEDIYTFYNIPYATAPVGVDRFKAPLPPPVWLQPYDAVEKPVVCPQPVFPFPELQLNKLVKQENCLIANVFVPNTNKKNLSVVVYVHGGAFIMGWGDMFRATQLMNKKDIIVVTFNYRLGVHGFLCLGTEDAPGNAGMKDQVALLRWVQKNIGSFNGNPDDVTIIGFSAGSASVDLLMLSKSAEGLFHRVVPESGGNLAAFAIQRDPVEIAKTYARQLNFTNVDDIYALGEFYKTAPLELLTSDPFFDRTDSTFLFSPCVERNMGQETFLTESPLTILKNGNYKKLPVLYGFAEMEGLLRVDFFPFWKQKMSDKFSDFLPADLTFKYEEEREEVANKVKRFYFGDEPVSEDNILQYVNFFSDVLFMHPMLWATKLHVEAGNNQIYLYELSFVAEEVPEVPHTNIKGVTQCGQSLAVLDGKNLTHKSHSEESLATPEYQKMKKTMREIWYNFIKKGKPVPEGSTRPAWPFAGADRSPHMSLGQKIEPRGVLLEKRTVLWDDINQRYFREPVPPPTPPPKSHAEK
notes: complete ORF amplified from male antennal cDNA, C-terminal V5/6His tag (tag kept), secreted from baculovirus-infected Sf21 cells, Ni-NTA purified from supernatant
[1]
  Km: 1600 ± 700 µM
  kcat: 36 s⁻¹
[2]
  Km: 56.6 ± 18.5 µM
  kcat: ~0.4 s⁻¹
[3]
  Km: 42.6 ± 13.3 µM
  kcat: ~0.4 s⁻¹
